From patent US20060286112A1 (published 2006)

Tests used:
[1] = molecular target: T1, human VLA-1 α1 subunit (CD49a), full-length, on transfected CHO cells (human, UniProt P56199 29-1179); experiment: cell-based or functional assay
[2] = molecular target: T1, human VLA-1 α1 subunit (CD49a), …; experiment: cell-based or functional assay; remark: listed apart in the source
[3] = molecular target: T2, human VLA-1 (alpha 1/beta 1, CD49a/CD29) on IL-2 stimulated human PBMC / T cells (human, UniProt P56199 29-1179; P05556 21-798); experiment: cell-based or functional assay
[4] = molecular target: T2, human VLA-1 (alpha 1/beta 1, …); experiment: cell-based or functional assay; remark: listed apart in the source
[5] = molecular target: T2, human VLA-1 (alpha 1/beta 1, …); experiment: cell-based or functional assay; remark: listed apart in the source
[6] = molecular target: T3, human CD49a I domain E66A (human, UniProt P56199 151-364, E66A); experiment: ELISA on secreted mutant I domain
T3 construct: domain: I domain; not shown: myc and His tags

[7] = molecular target: T4, human CD49a I domain T204A (human, UniProt P56199 151-364, T204A); experiment: ELISA on secreted mutant I domain
T4 construct: domain: I domain; not shown: myc and His tags

[8] = molecular target: T5, human CD49a I domain with residues 91-96 VQRGGR replaced by mouse GRRGGL (human, UniProt P56199 151-364, V91G; Q92R; R96L); experiment: ELISA on secreted mutant I domain
T5 construct: domain: I domain; also called V91G, Q92R, R96L; not shown: myc and His tags

[9] = molecular target: T6, human CD49a I domain K142Q (human, UniProt P56199 151-364, K142Q); experiment: ELISA on secreted mutant I domain
T6 construct: domain: I domain; text prints KI42Q once; not shown: myc and His tags

[10] = molecular target: T7, human CD49a I domain E48K (human, UniProt P56199 151-364, E48K); experiment: ELISA on secreted mutant I domain
T7 construct: domain: I domain; not shown: myc and His tags

[11] = molecular target: T8, human CD49a I domain K88N (human, UniProt P56199 151-364, K88N); experiment: ELISA on secreted mutant I domain
T8 construct: domain: I domain; not shown: myc and His tags

[12] = molecular target: T9, human CD49a I domain I11F (human, UniProt P56199 151-364, I11F); experiment: ELISA on secreted mutant I domain
T9 construct: domain: I domain; not shown: myc and His tags

[13] = molecular target: T10, human CD49a I domain S162H (human, UniProt P56199 151-364, S162H); experiment: ELISA on secreted mutant I domain
T10 construct: domain: I domain; not shown: myc and His tags

B1: 7.3 (antibody, V domains shown)
VH: QVQLVESGGGVVQPGRSLRLSCAASGITFSSYGMHWVRQAPGKGLEWVAVMWYEGSNKYYADSVKGRFTISRDNSKNTLYLQMNSLRAEDTAVYYCARGVLRYFDWLSYWGQGTLVTVSS
VL: EIVMTQSPATLSVSPGERATLSCRASQSVSSHLAWYQQKPGQAPRLLIYGASTRATGIPARFSGSGSGTEFTLTISSLQSEDFAVYYCQQYNNWPLTFGGGTKVEIK
With B1 the “IC50, adhesion of CHO-VLA-1 cells to collagen IV” value (“IC50, adhesion of CHO-VLA-1 cells” below) [1] was 940 pM.

B2: 7.40 (antibody, V domains shown)
VH: QVQLQESGPGLVKPSETLSLTCTVSGGSISSHYWSWIRQPAGKGLEWIGRIYTSGSTNYNPSLKSRVTMSVDTSKNQFSLKLRSVTAADTAVYYCAREGYSSSSGHYDYYYGMDVWGQGTTVTVS
VL: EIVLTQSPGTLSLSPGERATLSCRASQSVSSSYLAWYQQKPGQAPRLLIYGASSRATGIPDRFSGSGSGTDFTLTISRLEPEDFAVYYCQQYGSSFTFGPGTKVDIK
With B2 the “IC50, adhesion of CHO-VLA-1 cells” value [1] was 4720 pM.

B3: 7.22 (antibody, V domains shown)
VH: QVQLQESGPGLGKPSQTLSLTCTVSGGSISSGGHYWSWIRQHPGKGLEWIGYIYYSGSTYYNPSLKSRVTISVDTSKNQFSLKLSSVTAADTAVYYCARDDVRYGGMDVWGQGTTVTVSS
VL: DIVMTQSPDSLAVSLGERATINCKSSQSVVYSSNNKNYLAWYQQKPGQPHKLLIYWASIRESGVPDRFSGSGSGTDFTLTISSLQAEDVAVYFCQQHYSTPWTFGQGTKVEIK
B3 was tested, and the “relative inhibition at an optimal concentration, CHO-VLA-1 adhesion to collagen IV” value (shortened to “relative inhibition”) [2] was over 80% and the “IC50, adhesion of CHO-VLA-1 cells” value [1] was 410 pM.

B4: 7.34 (antibody, V domains shown)
VH: EVQLVESGGGLVKPGGSLRLSCAASGFTFSNAWMSWVRQAPGKGLEWVGRIKSKTEGGTTDNVAPVKGRFTISRDDSKNTLYLQMNSLKTEDTAVYYCTITTHYYGMDVWGQGTTVTVSS
VL: DIQMTQSPSSLSASVGDRVTITCRASQTINNYLNWYQQKPGKAPKLLIYAASSLQSGVPSRFSGSGSGTDFTLTISSLQPEDFATYSCQQSNSPPFTFGPGTKVDVK
With B4 the “% adhesion of IL-2 activated T cells to collagen IV vs no antibody, 10 µg/ml, +PMA” value [3] was 38.3%, the “% adhesion of IL-2 activated T cells to collagen IV vs no antibody, 10 µg/ml, -PMA” value [3] was 41.3% and the “relative inhibition” value [2] was over 80%. For the same binder, the “% adhesion of T cells to collagen IV vs no antibody, 0.5 nM mAb, 10 ng/ml PMA” value [4] was 98.2%, the “% adhesion of T cells to collagen IV vs no antibody, 5 nM mAb, 10 ng/ml PMA” value [4] was 89.7% and the “IC50, adhesion of CHO-VLA-1 cells” value [1] was 190 pM. The “% adhesion of T cells to collagen IV vs no antibody, 0.5 nM mAb, no PMA” value [5] was 89.2% and the “% adhesion of T cells to collagen IV vs no antibody, 5 nM mAb, no PMA” value [5] was 50.6%.

B5: 2.11 (antibody, V domains shown)
VH: QVQLQESGPGLVKPSQTLSLTCTVSGGSINSGGYYWSWIRQHPGKGLEWIGYIFYSGSTYYNPSLKSRVNISVDTSKNQFSLKMSSVTAADTAVYYCARDQDGFDYWGQGTLVTVSS
VL: DIVMTQTPLSLPVTPGEPASISCRSSQSLLDSDDGNTYLDWYLQKPGQSPQLLIYTLSYRASGVPDRFSGSGSGTDFTLKISRVEAEDVGVYYCMQRIEFPWTFGQGTKVEIK
notes: human IgG2 or IgG4
With B5 the “relative inhibition” value [2] was over 80%, the binding result [6] was “binds” and the binding result [7] was “binds”. B5: binds [8]; no binding [9]; binds [10]. The binding result [11] was “binds”, the binding result [12] was “binds” and the “IC50, adhesion of CHO-VLA-1 cells” value [1] was 70 pM.

B6: 7.57 (antibody, V domains shown)
VH: QVQLVQSGAEVKKPGASVRVSCKASGYTFTGYFMHWVRQAPGQGLEWMGWINPNSGGTNYAQKFQGRVTMTRDTSISTASMELSRLRSDDTAVYYCARAPLRYFDWLDYWGQGTLVTVSS
VL: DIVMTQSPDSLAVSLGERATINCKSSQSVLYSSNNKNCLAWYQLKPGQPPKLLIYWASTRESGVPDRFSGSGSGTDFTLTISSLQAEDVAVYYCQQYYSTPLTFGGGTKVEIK
For B6, the “IC50, adhesion of CHO-VLA-1 cells” value [1] was 3250 pM.

B7: 4.13 (antibody, V domains shown)
VH: QVQLVQSGAEVKKPGASVKVSCKASGYTFTSYYMNWVRQAPGQGLEWMGIISPSGGSTTYAQKFQGRVTMTRDTSTSTVYMELSSLRSEDTAVYYCARTGYSGYEGYYYGLDVWGQGTTVTVSS
VL: DVVMTQSPLSQPVTLGQPASISCRSSQSLVYSDGNTYLHWFQQRPGQSPRRLIYKVSNWDSGVPDRFSGSGSGTDFTLKISRVEAEDVGVYDCMQGTHWPSTFGGGTKVEIK
For B7, the “relative inhibition” value [2] was over 80% and the “IC50, adhesion of CHO-VLA-1 cells” value [1] was under 10 pM.

B8: 6.48 (antibody, V domains shown)
VH: EVQLVQSGAEVKKPGESLRISCKGSGYSVSSYWIGWVRQMPGKGLEWMGIIYPGDSDTRYSPSFQGQVTISADKSISTAFLQWISLKASDTAMYYCARLQGDCSGGSCYGHFDCWGQGTLVTVS
VL: DVVLTQSPLSLPVTLGQPASISCRSSQSLVNSDGDTYLSWFQQWPGQSPRRLFYEVSNWDSGVPDRFSGSGSGTDFTLKISRVEAEDVGVYYCMQGTHWLTFGGGTKVEIK
notes: human IgG2 or IgG4
In the case of B8, the “% adhesion of IL-2 activated T cells to collagen IV vs no antibody, 10 µg/ml, +PMA” value [3] is reported as 17.5%, the “% adhesion of IL-2 activated T cells to collagen IV vs no antibody, 10 µg/ml, -PMA” value [3] is reported as 41.3% and the “relative inhibition” value [2] is reported as over 80%. B8: binds [6]; no binding [8]; binds [9]. B8: binds [10]; binds [13]; binds [11]. For the same binder, the binding result [12] was “binds”, the “% adhesion of T cells to collagen IV vs no antibody, 0.5 nM mAb, 10 ng/ml PMA” value [4] was 94.6% and the “% adhesion of T cells to collagen IV vs no antibody, 5 nM mAb, 10 ng/ml PMA” value [4] was 72.5%. For the same binder, the “IC50, adhesion of CHO-VLA-1 cells” value [1] was 120 pM, the “% adhesion of T cells to collagen IV vs no antibody, 0.5 nM mAb, no PMA” value [5] was 70% and the “% adhesion of T cells to collagen IV vs no antibody, 5 nM mAb, no PMA” value [5] was 16.7%.

B9: 7.73 (antibody, V domains shown)
VH: QVQLQESGPGLVKPSETLSLTCTVSGGSISSHYWSWIRQPAGKGLEWIGRVYSSGSTNSNPSLKSRVTMSVDTAKNQFSLKLSSVTAADTAVYYCAREGYDFWSDYYNYYYGMDVWGQGTTVTVS
VL: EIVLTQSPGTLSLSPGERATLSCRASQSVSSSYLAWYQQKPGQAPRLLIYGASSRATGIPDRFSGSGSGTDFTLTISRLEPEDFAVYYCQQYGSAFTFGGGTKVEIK
For B9, the “relative inhibition” value [2] was over 80% and the “IC50, adhesion of CHO-VLA-1 cells” value [1] was 430 pM.

B10: 2.25 (antibody, V domains shown)
VH: QVQLQQSGPGLVKPSQTLSLTCAISGDSVSSNSAAWNWIRQSPSRGLEWLGRTYYMSKWYNDYAVSVKSRITINPDTSKNQFSLQLNSVTPEDTAVYYCARARYCGGDCYDFDYWGQGTLVTVSS
VL: DIQMTHSPSSLSASVGDRVTITCRASQSISISLNWYQQKPGNAPKLLIYAASSLQSGIPSRFSGSGSGTDFTLTISSLQPEDFATYYCQQSFSTPWTFGQGTKVEIK
B10 was tested, and the “IC50, adhesion of CHO-VLA-1 cells” value [1] was 74900 pM.

B11: 2.10 (antibody, V domains shown)
VH: EVQLVESGGGLVKPGGSLRLSCAASGFTLSSYSMNWVRQAPGKGLEWVSSISSSSSYIHYADSVKGRFTISRDNAKNSLYLQMNSLRAEDTAVYYCARAPVVFDYWGQGTLVTVSS
VL: EIVLTQSPGTLSLSPGERATLSCRASQSVSSSYLAWYQQKPGQAPRLLISGASSRATGIPDRFSGSGSGTDFTLTISRLEPEDFAVYYCQQYGGSLTWTFGQGTKVEIK
In the case of B11, the “IC50, adhesion of CHO-VLA-1 cells” value [1] is reported as 2370 pM.

B12: 6.3 (antibody, V domains shown)
VH: QVLLQESGPGLVKPSQTLSLTCTVSGGSISSGGYYWSWIRQHPGKGLEWIGYINYSGSAYYNPSLKSRVTISVDTSKNQFSLKLSSVTAADTAVYYCARDHWLLRGFDYWGQGTLVTVSS
VL: DIVMTQTPLSLSVTPGQPASISCKSSQSLLHSDGKTYLYWYLQKPGQPPQLLIYEVSNRFSGVPDRFSGSGSGTDFTLKISRVEAEDVGVYYCMQSIQLPRTFGQGTKVEIK
For B12, the “IC50, adhesion of CHO-VLA-1 cells” value [1] was 680 pM.

B13: 2.1 (antibody, V domains shown)
VH: QVQLQESGPGLVKPSQTLSLTCTVSGGSISSGGYYWSWIRQHPGKGLEWIGYIYNSGSTYYNPSLKSRGTISADTSKNQFSLKLSSVTAADTAVYYCARGSSSYYWYFDLWGRGTLVTVSS
VL: DIQMTQSPSSMSASVGDRVTITCRASQRISSNLNWYQQKPGKAPKFLIYGASSLQSGVPSRFSGSGSGTDFTLTISSLRPEDFATYYCQQSYSTPYTFGPGTKVDIK
In the case of B13, the “IC50, adhesion of CHO-VLA-1 cells” value [1] is reported as 21400 pM.
